In one test the target is T1, C3G-AAAP-Y554H (human, UniProt Q13905-1 4-1077, P283A | P284A | L286 | P287 | P289A | P453A | P454A | L456A | P457A | K459A | …).
T1 construct: human C3G isoform a, residues 4-1077; source: E. coli BL21 (DE3), purified (IMAC, TEV digestion, reversed IMAC, SEC); not shown: His, N-terminal, cleaved; Halo, N-terminal, cleaved
T1 sequence (looked up): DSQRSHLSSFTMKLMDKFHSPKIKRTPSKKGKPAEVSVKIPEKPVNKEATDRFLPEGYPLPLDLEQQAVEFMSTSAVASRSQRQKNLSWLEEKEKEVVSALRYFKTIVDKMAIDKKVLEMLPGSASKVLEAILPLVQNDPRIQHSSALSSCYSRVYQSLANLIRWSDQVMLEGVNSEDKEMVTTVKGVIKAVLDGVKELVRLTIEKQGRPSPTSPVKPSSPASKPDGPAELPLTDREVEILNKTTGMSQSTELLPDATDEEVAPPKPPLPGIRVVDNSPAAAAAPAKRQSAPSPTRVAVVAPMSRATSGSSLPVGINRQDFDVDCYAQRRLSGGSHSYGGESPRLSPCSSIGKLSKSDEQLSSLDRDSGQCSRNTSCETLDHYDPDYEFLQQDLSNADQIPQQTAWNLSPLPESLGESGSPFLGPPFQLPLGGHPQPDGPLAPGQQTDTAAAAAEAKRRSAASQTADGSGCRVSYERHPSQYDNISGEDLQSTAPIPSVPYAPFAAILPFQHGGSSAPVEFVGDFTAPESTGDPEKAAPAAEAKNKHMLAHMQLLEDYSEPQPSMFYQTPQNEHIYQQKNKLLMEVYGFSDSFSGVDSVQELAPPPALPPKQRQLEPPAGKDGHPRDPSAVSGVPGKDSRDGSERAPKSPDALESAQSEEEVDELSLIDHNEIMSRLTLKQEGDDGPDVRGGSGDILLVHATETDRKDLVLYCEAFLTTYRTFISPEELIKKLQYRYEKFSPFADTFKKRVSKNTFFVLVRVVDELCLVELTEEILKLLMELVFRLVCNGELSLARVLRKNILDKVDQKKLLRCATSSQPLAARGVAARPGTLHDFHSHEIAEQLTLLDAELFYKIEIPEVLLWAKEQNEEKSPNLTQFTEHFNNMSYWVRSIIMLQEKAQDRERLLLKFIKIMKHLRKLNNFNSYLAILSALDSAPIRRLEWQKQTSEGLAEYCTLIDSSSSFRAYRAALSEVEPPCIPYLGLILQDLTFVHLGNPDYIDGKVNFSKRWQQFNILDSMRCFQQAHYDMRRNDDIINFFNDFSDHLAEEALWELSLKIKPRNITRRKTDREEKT
The experiment in a line: ITC; single-PRM mutant of C3G in the cell titrated with CrkL or CrkL-SH3N, 25 °C, 300 mM NaCl, pH 7.5; SEDPHAT, 1:1 heteroassociation model; N is the competent fraction of C3G. The following applies: both partners purified.

Test [1] deals with T2, C3G (full-length, residues 4-1077) (human, UniProt Q13905-1 4-1077).
T2 construct: also called C3G WT; RapGEF1; source: E. coli BL21 (DE3), purified (IMAC, TEV digestion, reversed IMAC, SEC); not shown: His, N-terminal, cleaved; Halo, N-terminal, cleaved
T2 sequence (looked up): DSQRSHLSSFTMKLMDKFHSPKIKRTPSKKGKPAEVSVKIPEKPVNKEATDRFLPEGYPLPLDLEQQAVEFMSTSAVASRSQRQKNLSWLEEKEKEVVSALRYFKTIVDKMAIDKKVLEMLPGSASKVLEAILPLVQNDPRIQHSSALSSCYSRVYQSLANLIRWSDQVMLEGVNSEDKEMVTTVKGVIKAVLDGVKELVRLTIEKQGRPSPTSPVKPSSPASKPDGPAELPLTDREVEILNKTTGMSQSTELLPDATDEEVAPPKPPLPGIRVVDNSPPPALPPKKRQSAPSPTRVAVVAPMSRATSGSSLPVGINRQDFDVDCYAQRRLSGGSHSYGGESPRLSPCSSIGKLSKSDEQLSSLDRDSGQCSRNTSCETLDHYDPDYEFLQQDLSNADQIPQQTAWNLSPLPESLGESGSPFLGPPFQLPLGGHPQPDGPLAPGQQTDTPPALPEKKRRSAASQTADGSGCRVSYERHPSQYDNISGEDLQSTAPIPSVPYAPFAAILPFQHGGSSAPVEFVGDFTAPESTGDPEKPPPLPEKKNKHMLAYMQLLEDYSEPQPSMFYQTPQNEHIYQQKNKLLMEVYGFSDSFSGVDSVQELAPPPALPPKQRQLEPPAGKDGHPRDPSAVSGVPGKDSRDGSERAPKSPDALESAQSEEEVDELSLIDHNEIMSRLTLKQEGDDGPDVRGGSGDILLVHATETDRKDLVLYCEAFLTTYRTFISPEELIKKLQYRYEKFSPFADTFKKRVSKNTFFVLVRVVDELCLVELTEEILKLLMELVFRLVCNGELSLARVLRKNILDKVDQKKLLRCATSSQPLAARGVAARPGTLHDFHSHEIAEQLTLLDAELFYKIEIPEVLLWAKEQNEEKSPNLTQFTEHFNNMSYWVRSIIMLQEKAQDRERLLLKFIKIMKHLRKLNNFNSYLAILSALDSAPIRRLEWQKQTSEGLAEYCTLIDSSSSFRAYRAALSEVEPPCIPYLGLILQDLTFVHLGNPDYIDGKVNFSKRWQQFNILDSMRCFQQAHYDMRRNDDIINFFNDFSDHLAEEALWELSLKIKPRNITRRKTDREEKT
The experiment in a line: ITC; C3G in the cell titrated with CrkL in the syringe, 25 °C, 300 mM NaCl, pH 7.5; each titration analysed individually with Origin ITC, independent-site model. As to conditions: both partners purified. A general note: In ITC the heat of successive injections is recorded.

Several values for one entry are separate records, joined by “and”; a condition that tells them apart may be missing. Equal entries are not always repeated.

B1: CrkL-SH3N (domain or fragment, human, UniProt P46109 125-182, looked up)
chain: LEYVRTLYDFPGNDAEDLPFKKGEILVIIEKPEEQWWSARNKDGRVGMIPVPYVEKLV
notes: human CrkL, SH3N domain, residues 125-182, in pETEV15b; source: E. coli BL21 (DE3), purified (IMAC, TEV digestion, SEC); not shown: His, N-terminal, cleaved
The Kd is a measure of binding affinity in units of concentration. Broadly, the stoichiometry N is the number of molecules, sites or subunits per partner or assembly. As to B1, in the test with C3G-AAAP-Y554H, binding was characterised by a dissociation constant (Kd) of 2400 nM and the “stoichiometry N” value is 0.57.

B2: CrkL (full-length) (natural protein, human, UniProt P46109 1-303, looked up)
chain: MSSARFDSSDRSAWYMGPVSRQEAQTRLQGQRHGMFLVRDSSTCPGDYVLSVSENSRVSHYIINSLPNRRFKIGDQEFDHLPALLEFYKIHYLDTTTLIEPAPRYPSPPMGSVSAPNLPTAEDNLEYVRTLYDFPGNDAEDLPFKKGEILVIIEKPEEQWWSARNKDGRVGMIPVPYVEKLVRSSPHGKHGNRNSNSYGIPEPAHAYAQPQTTTPLPAVSGSPGAAITPLPSTQNGPVFAKAIQKRVPCAYDKTALALEVGDIVKVTRMNINGQWEGEVNGRKGLFPFTHVKIFDPQNPDENE
notes: human CrkL, residues 1-303, in pETEV15b; also called Crk-like protein; source: E. coli BL21 (DE3), purified (IMAC, TEV digestion, SEC); not shown: His, N-terminal, cleaved
Regarding B2, in test [1], the Kd stood at 3300 nM; the “stoichiometry N” value is 3.2 and 2.8 and 2.9.

Values taken from article PMC9896810, “Crk proteins activate the Rap1 guanine nucleotide exchange factor C3G by segregated adaptor-dependent and -independent mechanisms” (Cell Communication and Signaling : CCS, 2023).
